In the nanobody polyreactivity screen of Harvey et al. (2022):

Experiment: yeast display, Sf9 membrane polyspecificity reagent, FACS + sequencing; frameworks hold sequencing errors
Procedure, shortened: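 Nanobodies from a synthetic yeast display library (Saccharomyces cerevisiae BJ5465), induced 36–48 hours with galactose, were stained 1 hour at 4 °C with 10% biotinylated, detergent-solubilized Sf9 membrane reagent, enriched on streptavidin microbeads, then FACS-sorted. Anti-HA (expression) and streptavidin (reagent binding) fluorescence set low and high (top ~1%) gates. Polyreactivity labels come from the gate of origin. Genes were colony-PCR amplified, MiSeq 2 × 250 sequenced and filtered by CDR length.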

Sequence	polyreactivity (PSR sort gate)
QDQLVESRGGIVQAVRSLRLSSAASGSTYRNYAMGWYRQAPGKERELVAAISGSGGRTNYADSVKGRFTISRDNAKNTVYLQMNSLKQEDTAVYYCNARFPDWALSEISNSTTYGYWGQGTQVNVSS	low polyreactivity
QVQLVESGGGLVQAGGSLRLSCADSGNTLSYYVMGWYRQAPGKERELVADITSGGTTNYADSVKGRFTISRDNAKNTVYLQMNSLKAEDTAVYYCAAGPYKRPPWLRQGGYDYWGQGTQVTVSS	low polyreactivity
QVQLVESGGGLVQAGGSLRLSCAASGRIFSGNAMGWYRQAPGKERELVAAISWGGGRTYYADSVKGRFTISRDNAKNTVYLQMNSLKPEDTAVFYCNTVRQRARFTKVDYWGQGTQVTVSS	high polyreactivity
QVQLVESGGGLVQAGGSLRLSCAASGSTFVYNAMGGYSQAPGKERELGASISRGGGITYYADSVKGRFTISRDNAKNTVYLQMNSLKPEDTAVYYCAKTKGYRGHYYYWGQGTQVTVSS	high polyreactivity
QVQLVESGGGLVQAGGSLRLSCPASGNIFWWNARGWYRQAPGKERELVAAITSDSTTYYADSVKGRFTISRDNAKNTVYLQMNSLKPEDTAVYYCAAYSYGGQGVDYGYWGQGTQVTVSS	low polyreactivity
QVQLVESGGGLVQAGGSLRLSCAASGSIFTEYAMGWYRQAPGKERELVAAISWSGATTYYADSVKGRFTISRDNAKNTVYLQMNSLKPEDTAVYYCAARWANRSYEYWGQGTQVTVSS	low polyreactivity
QVQLVESGGGLVQAGGSLRLSCAASRSTLCQNAMGWYRQAPGKEREFVADNSGSGDSTYYADSVKGRFTISRDHANNTVYLQLNSLTPEDTAVYYCATPSPHVGLKWEYDSWGQGTQVTVSS	low polyreactivity
QVQLQESGGGLVQAGGSLRLSCAASSNNSTLDDMCWYRQAPGKEREFVASIGSGGITNYADSVKGRFTISRDNAKNTVYLQMNSLKPEDTAVYYCAVLNQAYTDLIYWGQGTQVTVSS	high polyreactivity
QVQLVESGGGLVQAGGSLRLSCAASGSTFPSYAMGWYRQAHGKERELVAAINSGGGTNYADSVKGRFTISRDNAKNTVYLQMHSLKPEDTAVYYCDKSRYDYTKTEGGYWGQATQVTVSS	low polyreactivity
QVQLVESGGGLVQAGGSLRLSCAASGIIFNLYAMGWYRQAPGKERELVAAISWSGGSTYYADSVKGRFTISRDNAKNTVYLQMNSLKPEDTAVYYCATSFLYPYFDEDDYWGQGTQVTVSS	high polyreactivity
QVQLVESGGGLVQAGGSIRLSSAASGLIFLGDPMGWYRQAPGKERELVASIRTGRSTSYADSVKGRFTFSRDNAKYTVYLQMNSLKPEDTAVYYCAADRGRPNLPGDYWGQGSQVTVSS	low polyreactivity
QVQLVESGGGLVQAGGSLRLTCAASGFIFSLNAMGWYRQAPGKERELVAAISRCGVRTYYADSVKGRFSISRDNAKNTVYLQMNSLKPEDTAVYYCATAGPYYYYSGPQYDYWGQGTHVTVSS	high polyreactivity
QVQLVESGGGLVQAGGSLRLSCAASGFIFSTYTMGWYRQAPGKERELVAAISWRGGRTYYADSVKGRFTISRDNAKNTVYLQMNSLKPEDTAVYYCADYGTIRSSTAVEPLYNHWGQGTQVTVSS	high polyreactivity
QVQLVETGGGLVQAGGSLRLICAASGRIFTWYAMGWYRQGPGKERELVATNSYNGGRTYYADSVKGRFTISRDNAKNTVYLQMNSLKPEDNAVYYCNTVPVGSVSHGLDSRFGYWGQGTQVTVSS	high polyreactivity
QVQLVESGGGLVQAGGSLRLSCAASGGTFARNALGWYRQAPGKERELVAAIRGGVSTNYADSVKGRFTISRDNAKNTVYLQMNSLKPEDTAVYYCNASPPTLEGYWGQGTQVTVSS	low polyreactivity
QVQLVESGGGLVQAGGSLRLSCAASGSTFYNYAMGWCRLAPGKERELVAATSSGGSTNYADSVKGRFTISRDNAKNTVFLQMISLKPEDNAVYYCARRHRVYPSRIGHDYWGQGTQVTVSS	low polyreactivity

Sequence	polyreactivity (PSR sort gate)
QVQLVESGGGLVQAGCSLRLSCAASGRIFHLYAMGWYTQAPGKERELVAAITGRGGSTYYADSVKGRFTISRDNAKNTVYLQINCLKPEDTAVYYCASYEFGFLRYYSGRSYYYWGQGTQVTVSS	high polyreactivity
QVQLQESGGRLVQAGGSMRLSCAASGTISDSGLMGWYRQAPGKERELVAGISSGGITNYADSVKGRFTISRDNAKNTVSLQMNSLKPEDTAVYWGQGTQVTVSS	low polyreactivity
KVQLVESGLGLVQAGGSLRISCAASGSIFTQYTMGWYRQAHGKERELVASISDSGGSTYYADSVKGRFTISRDNAKNTVYLQMNSLKPEDTSVYYCASRHDRPRESNPYDYWGQGTQVTVSS	low polyreactivity
QVQLVESGGGLVQAGGSLRLSCAASGSIFGAYAMGWYRQAPGKERELVAAISGSGTSTYYADSVKGRFTISRDNAKNTVYLQMYSLKPEDTAVYYCAADGTYFYIYLGDRFDYWGQGTQVTVSS	low polyreactivity
QVQLVESGGGLVQAGGSLRLSCAASGSIFYVYAMGWYIQAPGKERELVASIRWIGDRTYYADSVKGRFTISRDNAKNTVYLQMNSLKPEDTAVYYCAADPRYYGYYYLTPRYYYWGQGTQVTVSS	high polyreactivity
QVQLVESGGGLVQAGGSLRLSCAASGSIFKYYTMGWYRQAPGKERELVAAITYTGGRTYYADSVKGRFTISRDNAKNTVYLQMNSPKPEDTAVYYCAKDGPATVRRGYDYWGQGTQVTVSS	high polyreactivity
QVQLGESGGGLCQAGGSLRLSCAASGSIIAGYTMGWYRPAPGNARELVAGIRRGGSTNYADSVKGRVTISRDNAKNTVYLQMNSLKPEDTAVYYCNAQLTRSYVLRTFDYWGQGTQVTVSS	high polyreactivity
QFQLVESGGGLVQAGGSLRLRCAASGLIIKKYTMGWYRQAPGKEMELVASISKSGGSTYYADSVKGRFTISRDNAKNTVYLQMNSLKPEDTAVYYCNRVTHYIRFDYWGQGTQVTVSS	low polyreactivity
HVQLVESGGGLVQAGGSLRLSCAASGSIFADNAMGWYRQAPGNERELVAAISRTGGSTYYADSVKGRFTISRDNAKNTVYLQMNSLKPEDTAVYYCAADNGYGRYRRYYYWGQGTQVTVSS	high polyreactivity
QEQLLDSGGGLVQAGGSLRLSCAASGYFSSHILSWYRQGPGKVREFVDTITDGGTTDYADSVKGRFTISRDNAKNTVYLQMNSLNPQDTAVYYCAAVATYSYHFGYWGHGTQVTVSS	high polyreactivity
QVQLVESGGGLVQAGGSLRLSCAASGSTFTLYAMGGYIQAPGKERELVAAITSDDSTYYADSVKGRFTISRDNAKNTVYLQMNSLKPEDTAVYYCAADVYYGDFEMDYWGQGTQVTVSS	low polyreactivity
QVQLVESGGGLVQAGGSLRLSCAASGSTFSTNAMGWYRPAPAKEREFGAAITWSGDSTDYADSVKGRFTISRDNAKNTVYLHMNSLKPEDTAVYYCSAGPFLESYRGYSEMDYWGQGTQVTVSS	low polyreactivity
QVQLVESGGGLVQAGGSLRLSCAASGVTFYHNAMGSYRQAPGKERELVAAISSSGDSTYYADSVKGRFTISRDNAKNTVYLHMNSLKPEDTAVYYCNDYFYYLSLYYYYWFNYDYWGQGTQVTVSS	low polyreactivity
QVQLVESGGGLVQAGGSLRLSCAASGSTLYTYAMGWYRQAPGKERELVAAISYTGGRTYYADSVKGRFTISRDNAKNTVYLQMNSLKPEDTAVYYCAARFKSVGYDYWGQGTQVTVSS	high polyreactivity
QVQLVESGGGLVQAGGSLRLSCGASGFIFVRYAMGWYRQAPGKERELVAAITKGGGRTYYADSVKGRFTISRDNAKNTVYLQMNSLKPEDTAVYYCATGGAHGRERDYGGQGTQVTVSS	high polyreactivity
